Data reported in IntAct's records for PubMed 25910212.

B1: Emerin (Homo sapiens), P50402 (parent)
chain: MDNYADLSDTELTTLLRRYNIPHGPVVGSTRRLYEKKIFEYETQRRRLSPPSSSAASSYSFSDLNSTRGDADMYDLPKKEDALLYQSKGYNDDYYEESYFTTRTYGEPESAGPSRAVRQSVTSFPDADAFHHQVHDDDLLSSSEEECKDRERPMYGRDSAYQSITHYRPVSASRSSLDLSYYPTSSSTSFMSSSSSSSSWLTRRAIRPENRAPGAGLGQDRQVPLWGQLLLFLVFVIVLFFIYHFMQAEEGNPF
partner: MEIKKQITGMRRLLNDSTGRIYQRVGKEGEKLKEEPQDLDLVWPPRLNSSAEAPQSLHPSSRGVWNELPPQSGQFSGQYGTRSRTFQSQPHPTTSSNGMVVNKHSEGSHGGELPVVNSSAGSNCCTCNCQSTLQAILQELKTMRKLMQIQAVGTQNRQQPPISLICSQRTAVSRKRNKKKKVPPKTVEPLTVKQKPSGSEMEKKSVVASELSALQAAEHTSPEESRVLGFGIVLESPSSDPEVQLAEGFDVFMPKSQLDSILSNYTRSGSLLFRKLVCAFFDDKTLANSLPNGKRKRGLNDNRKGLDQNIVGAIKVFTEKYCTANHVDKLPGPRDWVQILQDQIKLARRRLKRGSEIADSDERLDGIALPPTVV
B2: Acetylcholine receptor subunit gamma (Homo sapiens), P07510-2 (parent)
chain: MHGGQGPLLLLLLLAVCLGAQGRNQEERLLADLMQNYDPNLRPAERDSDVVNVSLKLTLTNLISLNEREEALTTNVWIEMQWCDYRLRWDPRDYEGLWVLRVPSTMVWRPDIVLENKSQTYSTNEIDLQLSQEDGQTIEWIFIDPEAFTENGEWAIQHRPAKMLLDPAAPAQEAGHQKVVFYLLIQRKPLFYVINIIAPCVLISSVAILIHFLPAKAGGQKCTVAINVLLAQTVFLFLVAKKVPETSQAVPLISKYLTFLLVVTILIVVNAVVVLNVSLRSPHTHSMARGVRKVFLRLLPQLLRMHVRPLAPAAVQDTQSRLQNGSSGWSITTGEEVALCLPRSELLFQQWQRQGLVAAALEKLEKGPELGLSQFCGSLKQAAPAIQACVEACNLIACARHQQSHFDNGNEEWFLVGRVLDRVCFLAMLSLFICGTAGIFLMAHYNRVPALPFPGDPRPYLPSPD
partner: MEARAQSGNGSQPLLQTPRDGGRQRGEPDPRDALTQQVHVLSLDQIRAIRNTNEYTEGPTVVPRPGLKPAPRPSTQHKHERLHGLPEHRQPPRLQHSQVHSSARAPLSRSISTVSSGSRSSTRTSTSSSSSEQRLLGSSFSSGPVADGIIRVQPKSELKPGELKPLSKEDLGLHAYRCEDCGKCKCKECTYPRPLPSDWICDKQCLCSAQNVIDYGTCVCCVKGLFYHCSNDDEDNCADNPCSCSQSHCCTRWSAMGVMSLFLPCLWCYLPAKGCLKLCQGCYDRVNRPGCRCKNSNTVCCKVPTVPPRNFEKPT
B3: Polyunsaturated fatty acid 5-lipoxygenase (Homo sapiens), P09917 (parent)
chain: MPSYTVTVATGSQWFAGTDDYIYLSLVGSAGCSEKHLLDKPFYNDFERGAVDSYDVTVDEELGEIQLVRIEKRKYWLNDDWYLKYITLKTPHGDYIEFPCYRWITGDVEVVLRDGRAKLARDDQIHILKQHRRKELETRQKQYRWMEWNPGFPLSIDAKCHKDLPRDIQFDSEKGVDFVLNYSKAMENLFINRFMHMFQSSWNDFADFEKIFVKISNTISERVMNHWQEDLMFGYQFLNGCNPVLIRRCTELPEKLPVTTEMVECSLERQLSLEQEVQQGNIFIVDFELLDGIDANKTDPCTLQFLAAPICLLYKNLANKIVPIAIQLNQIPGDENPIFLPSDAKYDWLLAKIWVRSSDFHVHQTITHLLRTHLVSEVFGIAMYRQLPAVHPIFKLLVAHVRFTIAINTKAREQLICECGLFDKANATGGGGHVQMVQRAMKDLTYASLCFPEAIKARGMESKEDIPYYFYRDDGLLVWEAIRTFTAEVVDIYYEGDQVVEEDPELQDFVNDVYVYGMRGRKSSGFPKSVKSREQLSEYLTVVIFTASAQHAAVNFGQYDWCSWIPNAPPTMRAPPPTAKGVVTIEQIVDTLPDRGRSCWHLGAVWALSQFQENELFLGMYPEEHFIEKPVKEAMARFRKNLEAIVSVIAERNKKKQLPYYYLSPDRIPNSVAI
B4: Phospholamban (Homo sapiens), P26678 (parent)
chain: MEKVQYLTRSAIRRASTIEMPQQARQKLQNLFINFCLILICLLLICIIVMLL
partner: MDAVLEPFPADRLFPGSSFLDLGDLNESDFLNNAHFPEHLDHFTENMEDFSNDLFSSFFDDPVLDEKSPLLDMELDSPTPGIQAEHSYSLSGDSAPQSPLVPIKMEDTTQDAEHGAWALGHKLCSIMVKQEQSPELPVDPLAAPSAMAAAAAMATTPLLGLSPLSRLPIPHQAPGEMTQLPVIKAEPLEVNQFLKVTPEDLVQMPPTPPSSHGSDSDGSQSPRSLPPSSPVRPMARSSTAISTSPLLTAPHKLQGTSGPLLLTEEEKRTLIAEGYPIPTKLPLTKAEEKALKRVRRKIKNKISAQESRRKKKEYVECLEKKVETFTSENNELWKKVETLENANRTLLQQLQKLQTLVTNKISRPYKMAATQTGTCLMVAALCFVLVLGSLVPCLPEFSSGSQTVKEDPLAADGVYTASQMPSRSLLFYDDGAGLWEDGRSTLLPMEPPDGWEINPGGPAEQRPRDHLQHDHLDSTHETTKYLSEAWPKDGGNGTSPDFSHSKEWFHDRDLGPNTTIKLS
B5: Inactive peptidyl-prolyl cis-trans isomerase FKBP6 (Homo sapiens), O75344 (parent)
chain: MGGSALNQGVLEGDDAPGQSLYERLSQRMLDISGDRGVLKDVIREGAGDLVAPDASVLVKYSGYLEHMDRPFDSNYFRKTPRLMKLGEDITLWGMELGLLSMRRGELARFLFKPNYAYGTLGCPPLIPPNTTVLFEIELLDFLDCAESDKFCALSAEQQDQFPLQKVLKVAATEREFGNYLFRQNRFYDAKVRYKRALLLLRRRSAPPEEQHLVEAAKLPVLLNLSFTYLKLDRPTIALCYGEQALIIDQKNAKALFRCGQACLLLTEYQKARDFLVRAQKEQPFNHDINNELKKLASCYRDYVDKEKEMWHRMFAPCGDGSTAGES
partner: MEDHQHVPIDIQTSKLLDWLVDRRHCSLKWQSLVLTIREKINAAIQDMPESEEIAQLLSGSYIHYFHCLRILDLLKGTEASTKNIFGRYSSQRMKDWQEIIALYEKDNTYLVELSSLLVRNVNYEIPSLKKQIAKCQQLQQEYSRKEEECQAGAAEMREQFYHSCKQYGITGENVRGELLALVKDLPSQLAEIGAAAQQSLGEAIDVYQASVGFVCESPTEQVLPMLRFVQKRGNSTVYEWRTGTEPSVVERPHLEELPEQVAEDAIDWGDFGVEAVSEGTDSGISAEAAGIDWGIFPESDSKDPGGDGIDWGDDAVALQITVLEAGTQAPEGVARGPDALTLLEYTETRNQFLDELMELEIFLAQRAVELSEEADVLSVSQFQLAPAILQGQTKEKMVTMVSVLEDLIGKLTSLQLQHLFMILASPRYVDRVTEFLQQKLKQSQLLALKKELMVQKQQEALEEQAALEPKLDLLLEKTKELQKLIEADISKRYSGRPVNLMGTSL

Variants of: B1
Details: with BEND7, Q8N7W2-2

Row | Variant | effect of a mutation on the interaction
1 | D72V | with no effect

Variants of: B2
Details: with spy2_human SPRY2, O43597

Row | Variant | effect of a mutation on the interaction
2 | R86C | disrupting interaction strength
3 | R187C | disrupting interaction strength
4 | V107G | disrupting interaction strength

Variants of: B3
Details: with md1l1_human MAD1L1, Q9Y6D9
Chain of md1l1_human MAD1L1, Q9Y6D9 (Q9Y6D9 whole entry): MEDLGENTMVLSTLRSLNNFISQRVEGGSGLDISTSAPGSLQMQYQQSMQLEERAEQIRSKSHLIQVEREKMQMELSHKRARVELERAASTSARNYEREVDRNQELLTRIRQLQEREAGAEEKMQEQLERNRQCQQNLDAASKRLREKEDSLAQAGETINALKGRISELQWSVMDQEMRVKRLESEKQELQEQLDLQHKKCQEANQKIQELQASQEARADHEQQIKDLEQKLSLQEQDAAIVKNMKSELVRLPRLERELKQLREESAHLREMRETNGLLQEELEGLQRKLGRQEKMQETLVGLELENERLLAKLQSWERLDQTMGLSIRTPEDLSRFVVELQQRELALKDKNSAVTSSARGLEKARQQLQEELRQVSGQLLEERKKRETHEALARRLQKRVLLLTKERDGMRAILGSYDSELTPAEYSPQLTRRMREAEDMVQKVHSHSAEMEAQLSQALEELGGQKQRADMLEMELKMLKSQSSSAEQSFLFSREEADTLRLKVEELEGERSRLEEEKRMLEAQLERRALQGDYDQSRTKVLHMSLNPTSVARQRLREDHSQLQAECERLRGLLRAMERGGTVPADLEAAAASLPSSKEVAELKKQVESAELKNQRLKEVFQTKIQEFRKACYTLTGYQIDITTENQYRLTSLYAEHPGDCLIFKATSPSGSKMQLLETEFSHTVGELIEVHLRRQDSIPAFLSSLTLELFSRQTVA

Row | Variant | effect of a mutation on the interaction
5 | E254K | with no effect

Variants of: B3
Details: with hipl2_human HHIPL2, Q6UWX4
Chain of hipl2_human HHIPL2, Q6UWX4 (Q6UWX4 whole entry): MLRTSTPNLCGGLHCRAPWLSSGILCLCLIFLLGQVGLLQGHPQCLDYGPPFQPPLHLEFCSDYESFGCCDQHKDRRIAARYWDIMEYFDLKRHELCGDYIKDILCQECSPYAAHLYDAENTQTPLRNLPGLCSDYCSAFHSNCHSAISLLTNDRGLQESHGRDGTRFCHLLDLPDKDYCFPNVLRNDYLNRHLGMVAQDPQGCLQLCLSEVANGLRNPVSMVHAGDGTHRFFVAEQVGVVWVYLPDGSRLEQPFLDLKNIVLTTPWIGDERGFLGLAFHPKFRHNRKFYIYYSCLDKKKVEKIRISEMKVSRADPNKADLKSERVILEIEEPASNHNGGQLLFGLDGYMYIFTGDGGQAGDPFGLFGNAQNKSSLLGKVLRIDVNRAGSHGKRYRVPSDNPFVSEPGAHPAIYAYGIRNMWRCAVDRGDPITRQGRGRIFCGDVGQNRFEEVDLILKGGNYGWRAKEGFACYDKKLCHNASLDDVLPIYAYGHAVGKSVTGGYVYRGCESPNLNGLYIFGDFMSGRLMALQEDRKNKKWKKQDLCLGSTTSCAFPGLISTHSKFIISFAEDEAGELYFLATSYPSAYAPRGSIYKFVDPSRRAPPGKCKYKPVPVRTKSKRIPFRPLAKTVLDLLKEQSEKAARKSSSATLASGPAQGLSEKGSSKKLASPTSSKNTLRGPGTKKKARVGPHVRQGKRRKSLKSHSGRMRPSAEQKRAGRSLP

Row | Variant | effect of a mutation on the interaction
6 | E254K | with no effect

Variants of: B3
Details: with syce1_human SYCE1, Q8N0S2
Chain of syce1_human SYCE1, Q8N0S2 (Q8N0S2 whole entry): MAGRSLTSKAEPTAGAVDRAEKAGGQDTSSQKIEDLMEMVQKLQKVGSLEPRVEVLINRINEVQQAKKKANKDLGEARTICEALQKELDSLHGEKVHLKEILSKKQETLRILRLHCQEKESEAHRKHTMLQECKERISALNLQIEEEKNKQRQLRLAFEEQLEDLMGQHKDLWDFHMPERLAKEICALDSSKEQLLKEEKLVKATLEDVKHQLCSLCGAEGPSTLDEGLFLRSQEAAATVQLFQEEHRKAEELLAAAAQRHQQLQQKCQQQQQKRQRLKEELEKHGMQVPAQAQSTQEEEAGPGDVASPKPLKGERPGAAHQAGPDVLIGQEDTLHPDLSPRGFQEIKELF

Row | Variant | effect of a mutation on the interaction
7 | E254K | with no effect

Variants of: B4
Details: with cr3l1_human CREB3L1, Q96BA8

Row | Variant | effect of a mutation on the interaction
8 | R9C | with no effect

Variants of: B5
Details: with ck5p3_human CDK5RAP3, Q96JB5

Row | Variant | effect of a mutation on the interaction
9 | F72L | disrupting interaction strength
10 | R202H | with no effect
